The source of these data is US5789216A, “Cloning and expression of human GMP synthetase, its use in screening for inhibitors of human GMP synthetase and inhibitors of human GMP synthetase” (Syntex (U.S.A.) Inc., priority 1995, dated 1998).

The conditions of data set [1]: partially purified, approximately 50-fold, human fibroblast cells; cited from earlier work.
Data set [2] relates to GMP synthetase from Ehrlich ascites cells. As to conditions: cited from earlier work.
Data set [3] concerns IMP dehydrogenase. Particulars: cited from earlier work.
The subject of data set [4] is transplant rejection and rheumatoid arthritis. Particulars: recent clinical trials; cited from earlier work.
In data set [5] the test system is lymphocyte. Particulars: can be blocked by exogenous guanosine; cited from earlier work.
The nature of data set [6]: Spectrophotometric-coupled assay of Spector (rate of AMP production; specific activity of enzyme preparations). In kind it is biochemical. The text has this: The medium will usually be a salt medium such as normal saline, phosphate buffer, or phosphate buffered saline containing additives well known to those skilled in the art and commercially available from a number of suppliers such as GIBCO and Hyclone. The cultured cells are then homogenized under conventional conditions such as, for example, sonication, freeze-thawing, and hypotonic lysis, and the cytosolic fraction is obtained by centrifugation and recovery of the supernatant. Differential salt fractionation, using, for example, ammonium sulfate, is employed to separate the GMP synthetase-richprotein fraction. Salt is then removed by one of a variety of known methods such as gel filtration, dialysis and the like. The desalted protein fraction is then subjected to anion exchange chromatography. […] Fractions showing GMP-synthetase activity are further subjected to hydrophobic interaction chromatography and a second purification via anion exchange chromatography. […] The assay measures the rate of production of AMP by GMP synthetase by coupling it to the oxidation of NADH via the auxiliary enzymes AMP kinase, pyruvate kinase and lactate dehydrogenase.
This assay measured the rate of AMP production by GMP synthetase, and the level of AMP is measured through the activity of three auxiliary enzymes. […] This rate is referred to as background rate.

The mark [7] stands for this setting: purified enzyme, repeated purifications or single preparation.

Read-outs that look alike come from different tables or passages of the source.

With “partially purified preparation from human fibroblast cells: GMP synthetase from human fibroblasts, purified approximately 50-fold by ammonium sulfate fractionation and gel filtration”, in data set [1], the specific activity was 5990 pmoles guanine compound produced/min/mg.

Regarding `O=P(O)(O)OP(=O)(O)O` [pyrophosphate], the “inhibition of the enzyme by its reaction product” value in data set [2] was “inhibition”. Take `COc1c(C)c2c(c(O)c1C/C=C(\C)CCC(=O)O)C(=O)OC2` [mycophenolic acid]: the “inhibitor of IMP dehydrogenase” value in data set [3] is “potent inhibitor”. In addition, the “effective in treatment of transplant rejection and rheumatoid arthritis” value in data set [4] is “effective”. Also, the “inhibition of lymphocyte proliferation, correlated with lowering of the intracellular pool of guanine nucleotides” value in data set [5] is “inhibition of lymphocyte proliferation”.

On to “human GMP synthetase: purified human GMP synthetase from A3.01 cells, single Coomassie blue-staining band at 75 kDa”, for which the specific activity is listed as 3.0 μmol AMP/min-mg in data set [6] (Mono Q pool, purified from A3.01 cells) and 2.5-4.0 μmol AMP produced/min/mg in data set [6] (setting [7]). Consider “recombinant human GMP synthetase: baculoviral expressed human GMP synthetase purified from Sf-9 cells”, for which the specific activity in data set [6] (setting [7]) is given as 3.0-4.4 μmol AMP produced/min/mg; in data set [6] (purified enzyme, repeated purifications or single preparation, listed as purified protein) it was 4.4 μmol AMP produced/min/mg.
